{"source": "paper PMC5651683", "about": "(The Biochemical journal, 2017)", "target": "His6-Munc18a (rat, UniProt P61765 1-594)", "sequence (P61765 whole entry)": "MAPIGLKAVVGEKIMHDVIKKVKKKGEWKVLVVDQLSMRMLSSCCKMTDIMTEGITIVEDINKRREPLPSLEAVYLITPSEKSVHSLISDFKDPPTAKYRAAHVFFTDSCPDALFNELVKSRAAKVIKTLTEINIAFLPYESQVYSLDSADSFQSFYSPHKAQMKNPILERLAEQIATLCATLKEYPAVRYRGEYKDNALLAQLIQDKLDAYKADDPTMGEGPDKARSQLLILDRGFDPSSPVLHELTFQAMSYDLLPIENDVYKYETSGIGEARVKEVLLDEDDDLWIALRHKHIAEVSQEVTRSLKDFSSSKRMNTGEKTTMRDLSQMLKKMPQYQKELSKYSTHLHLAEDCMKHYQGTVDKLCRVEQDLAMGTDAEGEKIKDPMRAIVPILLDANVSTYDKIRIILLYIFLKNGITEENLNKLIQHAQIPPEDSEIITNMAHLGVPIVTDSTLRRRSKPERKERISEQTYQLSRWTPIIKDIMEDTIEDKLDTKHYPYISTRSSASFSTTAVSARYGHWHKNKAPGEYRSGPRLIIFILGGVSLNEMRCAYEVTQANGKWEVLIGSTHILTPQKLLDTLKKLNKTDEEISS", "test": "pull-down", "data": [{"binder": "syntaxin3, full-length, liposome-anchored (natural protein, rat, UniProt Q08849 1-289, looked up) MKDRLEQLKAKQLTQDDDTDEVEIAIDNTAFMDEFFSEIEETRLNIDKISEHVEEAKKLYSIILSAPIPEPKTKDDLEQLTTEIKKRANNVRNKLKSMEKHIEEDEVRSSADLRIRKSQHSVLSRKFVEVMTKYNEAQVDFRERSKGRIQRQLEITGKKTTDEELEEMLESGNPAIFTSGIIDSQISKQALSEIEGRHKDIVRLESSIKELHDMFMDIAMLVENQGEMLDNIELNVMHTVDHVEKARDETKRAMKYQGQARKKLIIIIVIVVVLLGILALIIGLSVGLK", "values": [{"measurement": "binding result", "result": "binds"}]}]}
